The values that follow come from article PMC8624677 (The Journal of Cell Biology, 2021).

The labels stand for the following.
B1: cyt-DATL H410C (domain or fragment)
chain: MGGSAVQVINASEEHTFVLNEDALSEVLMRDEVKDRFVCVVSVAGAFRKGKSFLLDFFLRYMYSKYVHHDATDWLGGESDPLEGFSWRGGSERDTTGILMWSDIFLHDYPNGDKIAIILLDTQGAFDSQSTVRDCATVFALSTMLSSVQIYNLSQNIQEDDLQHLQLFTEYGRLALADTGKKPFQRLQFLVRDWSFPYEAEYGALGGDKILKRRLEVSDKQHPELQSLRRHISSCFTEVACFLMPHPGLNVATNPKFDGRLQDITPEFKSSLRSLVPMLLAPDNLVYKEISGQRVRARDLIQYFQSYMNIYKGNELPEPKSMLVATAEANHLTAVAAAKELYGQLMEEVCGGTRPYLSTAHLQTEHLRVKDKALFQFAAKRKMGGEEFTEKFRKQLEDDLEEVFTNYQACNESKN
modifications: Cy3 maleimide on the engineered 3HB cysteine H410C
B2: cyt-ATL2 H462C (also C59A, C143A, C395N, and C441A) (domain or fragment, human, UniProt Q8NHH9 1-467, looked up)
chain: MAEGDEAARGQQPHQGLWRRRRTSDPSAAVNHVSSTTSLGENYEDDDLVNSDEVMKKPAPVQIVLAHEDDHNFELDEEALEQILLQEHIRDLNIVVVSVAGAFRKGKSFLLDFMLRYMYNKDSQSWIGGNNEPLTGFTWRGGAERETTGIQVWNEVFVIDRPNGTKVAVLLMDTQGAFDSQSTIKDCATVFALSTMTSSVQVYNLSQNIQEDDLQHLQLFTEYGRLAMEEIYQKPFQTLMFLIRDWSYPYEHSYGLEGGKQFLEKRLQVKQNQHEELQNVRKHIHNCFSNLGCFLLPHPGLKVATNPSFDGRLKDIDEDFKRELRNLVPLLLAPENLVEKEISGSKVTCRDLVEYFKAYIKIYQGEELPHPKSMLQATAEANNLAAVAGARDTYNKSMEQVCGGDKPYIAPSDLERKHLDLKEVAIKQFRSVKKMGGDEFARRYQDQLEAEIEETYANFIKCNDGKN
modifications: Cy3 maleimide on the engineered 3HB cysteine H462C
B3: cyt-ATL1 H435C (domain or fragment, human, UniProt Q8WXF7 1-446, looked up)
chain: MAKNRRDRNSWGGFSEKTYEWSSEEEEPVKKAGPVQVLIVKDDHSFELDETALNRILLSEAVRDKEVVAVSVAGAFRKGKSFLMDFMLRYMYNQESVDWVGDYNEPLTGFSWRGGSERETTGIQIWSEIFLINKPDGKKVAVLLMDTQGTFDSQSTLRDSATVFALSTMISSIQVYNLSQNVQEDDLQHLQLFTEYGRLAMEETFLKPFQSLIFLVRDWSFPYEFSYGADGGAKFLEKRLKVSGNQHEELQNVRKHIHSCFTNISCFLLPHPGLKVATNPNFDGKLKEIDDEFIKNLKILIPWLLSPESLDIKEINGNKITCRGLVEYFKAYIKIYQGEELPHPKSMLQATAEANNLAAVATAKDTYNKKMEEICGGDKPFLAPNDLQTKHLQLKEESVKLFRGVKKMGGEEFSRRYLQQLESEIDELYIQYIKCNDSKNIFHAAR
modifications: Cy3 maleimide on the engineered 3HB cysteine H435C
B4: cyt-DATL(1–415) S270C (domain or fragment)
chain: B1 chain with S270C, C410H
modifications: Alexa Fluor 488 (donor) or 647 (acceptor) maleimide on the engineered G-domain cysteine S270C
B5: cyt-ATL2(1–467) S308C (also C59A, C143A, C395N, and C441A) (domain or fragment, human, UniProt Q8NHH9 1-467, looked up)
chain: B2 chain with S308C, C462H
modifications: Alexa Fluor 488 (donor) or 647 (acceptor) maleimide on the engineered G-domain cysteine S308C
B6: cyt-ATL1(1–446) N281C (domain or fragment, human, UniProt Q8WXF7 1-446, looked up)
chain: B3 chain with N281C, C435H
modifications: Alexa Fluor 488 (donor) or 647 (acceptor) maleimide on the engineered G-domain cysteine N281C

Substitutions are numbered along the chain they refer to. Names and notes keep the numbering of the source.

One data set concerns the molecule itself. As to the kind of experiment: PIFE.
Regarding B1, the binding result is recorded as “binds”.
As to B2, the binding result is given as “binds”.
Turning to B3, the binding result is “binds”.

The next data set deals with the molecule itself. As to the kind of experiment: FRET or BRET.
Consider B4, for which the binding result was “binds”.
Consider B5, for which the binding result is on record as “binds”.
B6: the binding result is recorded as “binds”.
